Reference: the nanobody polyreactivity screen of Harvey et al. (2022)

Experiment: yeast display, Sf9 membrane polyspecificity reagent, FACS + sequencing; frameworks hold sequencing errors
Method in brief: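 After 36–48 hours of galactose induction, yeast (Saccharomyces cerevisiae BJ5465) displaying a synthetic nanobody library were stained at 4 °C for 1 hour with 10% biotinylated, detergent-solubilized Sf9 membrane reagent. Streptavidin microbeads enriched the stained cells before FACS sorting into low and high (top ~1%) gates on anti-HA and streptavidin fluorescence. Each clone's polyreactivity label reflects its gate of origin.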

## QVQLVESGGGIDQAGGSLRLSCAASGGTFFSNAMGWYRQAPGKERELVAGITSGGRTYYADSVKGRFTISRDNAKNTVYLQMNSLKPEDTAVDYCATRSRRTYYYYGAEGYWGQGTQVTVSS
  polyreactivity (PSR sort gate): high polyreactivity

## QVQLLESGGGLVQAGGSLRLSCAASGSIFDPYAMGWYRQAPGKERELVAVINDGGRTTYADSVKGRFTISRDNAKNTVYLQMNRLKPEDTAVYYCAATSYFSRWDLYGYWGQGTQVTVSS
  polyreactivity (PSR sort gate): low polyreactivity

## QVQLVESGGGLVQAGGSLRLSCAASGSTFAYNAMGWYRQAPGKERELVAAITRSGGSTYYADSVKGRFTISRDNAKNTVYLQKNSLKPEDTAVYYCNKASGGYYVTSLYAYRYYYWGQGTQVTVSS
  polyreactivity (PSR sort gate): high polyreactivity

## QVQLVESGGGLVQAGGSLRLSCAASGSIFSTYAMGWYRQAPGKERELVAAINSGDSTSYADSVKGRFTISRDNAKNTVYLQMNSLKPEDTAVYYCAAKTGGYWYLRRTGRYESWGQGTQVTVSS
  polyreactivity (PSR sort gate): low polyreactivity

## QVQLVESGGGLVQAGGSLRLSCAASGRTIGIYARGWYRQAPVKERELVADITIGGSTYYADSVKGRFTISRDNAKNTVFIQINSLKPEDTAVYYCAARNPGYTRTGRRYDSWGQGTQVTVSS
  polyreactivity (PSR sort gate): low polyreactivity

## QVQLVESGGGLVQAGGSLRLSCAASGFIFRYYAMGWYRQAPGKERELVATISYRGASTYYADSVKGRFTISRDNAKNTVYLQMNSLKPEDTAVYYCAADWGWYWYIYDYWGQGTQVTVSS
  polyreactivity (PSR sort gate): low polyreactivity

## QVQLVESGGGLVQAGGSLRLSCAASGGYGMGWYRQAPGKERELVAAISYSGGSTYYADSVKGRFTISRDNAKNTVYLQMNSLKPEDTAVYYCNVLRGSLNGWWPGYDYWGQGTQVTVSS
  polyreactivity (PSR sort gate): low polyreactivity

## QVQLVESGGGLVQAGGSLRLSCAASGFTFKNYAMGWYRQAPGKEREFVATISSRGGSTYYADSVKGRFTISRDNAKNTVYLQMNSLKPEDPAVYYCAARYFSYGRSRQRHYYWGQGTQVTVSS
  polyreactivity (PSR sort gate): high polyreactivity

## QVQLVESGGGLVQAGGRLRLSCAASGRTFTSNAMGWYRQAPGKERELVAAIDDGGSTNYADSVKGRFTISRDNAKNTVYLQMNSLKPEDTAVYYCNAPITWQYRGFRRRFDYWGQGTQVTVSS
  polyreactivity (PSR sort gate): low polyreactivity

## QVQLVESGGGLVQAGASLRLSCAASGSIFYDNAMGWYRQAPGKERELVASIRWSGDSTYYADSVKGRITISRDNAKNTVYLQMNSLKPEDTAVYYCAADPVEPYFTAIAYDYWGQGTQVTVSS
  polyreactivity (PSR sort gate): low polyreactivity

## QVQLVESGGGLVQAGGTLRLSCAASGRTFYFYAMGWYRQAPGKERELVAAITSRVGRTYYADSVKGRFTISRDNAKNTVYLQMNSLKPEDTAVYYCAAEGVYRMGYWGQGTQVTVSS
  polyreactivity (PSR sort gate): high polyreactivity

## QVQLVESGGGLVQAGGSLRLSCAASGRTFRAYALGWYRQAPGKERELVAAITSGGSTKYADSVKGRFTISRDNAKNTVYLQMNSLKPEDTAVYYCNARVRVRLGRNWSSYYYWGQGTQVTVSS
  polyreactivity (PSR sort gate): high polyreactivity

## QVQLVESGGGLVQAGGSLRLSCAASGSTFVRYVMGWYRQAPGKERELVAAISRRGGSTYYADSVKGRFTISRDNAKNTVYLQMNSLKPEDTAVYYCAARGTSRKYYYWGQGTQVTVSS
  polyreactivity (PSR sort gate): high polyreactivity

## QVQLVESGGGLVQAGGSLRISCAASGSIFVKNAMGWYRQAPGKEREFVAAITTSGGSTNYADSVKGRFTISRDNAKNTVYLQMNSLKPEDTAVYYCNTDIFPAAYDYWGQGTQVTVSS
  polyreactivity (PSR sort gate): low polyreactivity

## QVQLVESGGGIVQAGGSLRLCCAASGRSFSHYAMGWSRQAPGKDRELVATITRNGGITYYADSVKWRFTISRDNAKNTVYLQMNSLKPEDTAVYYCAAGRYYNLRATHGYWGQATQVTVSS
  polyreactivity (PSR sort gate): low polyreactivity

## QVQLVESGGGLVQAGGSLRLSCAASGSTFAPNAMGWYRQAPGKERELVASIRRGGSTHYADSVKGRFTISRDNAKNTVYVQMNSLKPEDTAVYYCAKDVWRHYLNLYDYWGQGTQVTVSS
  polyreactivity (PSR sort gate): low polyreactivity

## QVQLVESGGGLVQAGGSLRLSCAASGSTFPTYAMGWYRQAPGKERELVADITWSGGSTYYADSVKGRFTISRDNAKNTVYLQMNSLKPEDTAVYYCAAVFKAGSAYDYWGQGTQVTVSS
  polyreactivity (PSR sort gate): high polyreactivity

## QVQLVESGAGLLHAGRSLRLSCPASGRIFRGNAMGCYRQAPGKERELVASISTSGVRTFYADSVKGRFTISRDNAKNTFYLQMNSLKHEDTAVYYCNKRDRYRLYGYNYCGQGTQVTVSS
  polyreactivity (PSR sort gate): high polyreactivity

## QVQLEESGGGLVQAGGSLRLSCAASGSTFVVYAMGWYRQAPGKERELVAAISGRGGRTYYADSVKGRFTISRDNAKNTVYLQMISLKPEDTAVYYCSTRYNNLYTIRVGEYDSWGQGTQVTVSS
  polyreactivity (PSR sort gate): high polyreactivity

## QVQLVESGGGLFQAGGSLRLSCAASGSTFGNNAMGWYRQAPGKERELVAAISRSGGNTYYADSVKGRFTISRDNAKNTVYLQMNSLKPEDTAVYYCAAGKLYAAGVYYLRRLYYWGQGTQVTVSS
  polyreactivity (PSR sort gate): high polyreactivity

## QVQLVESGGGLVQAGGSLSLSCAASGRTFSYYAMGWYRQAPGKERELVAAISRSGSITYYADSVKGRFTISRDNAKNTIYLQMNSLKPEDTAVYYCNADSSRRRYSSDYWGQGTQVTVSS
  polyreactivity (PSR sort gate): high polyreactivity

## QVQLVESGGGLVQAGGSLRLSCAASGRIFGRYTMGWYRQAPGKGRELDAAISDSGDSTYADSVKGRFTISRDNAKNSVYFQMNSLKPEDTAVYFCNAQSGSFAGHEYDYWGQGTQLTVSS
  polyreactivity (PSR sort gate): low polyreactivity

## QVQLVESGGGLVQAGGSLRLSCAASGSTFVRNVMGWYRQAPGKERELDAAITRSGDTTYYADSVKGRFTISRDNAKNTVYLQMNSLKPEDTAVYYCAKRTFVRRGSIYPIDDYWGQGTQVTVSS
  polyreactivity (PSR sort gate): low polyreactivity

## QVQLVESGGGLVQAGGSLRLSCAPSGGTFTHNAMGWYRQAPGKEWELVAAISRSGGSTSYADSVKGRFTISRYNAMNTVYLQMNSLKPEDTAVYYCAALISRQRSYSRDYWGQGTQVTVSS
  polyreactivity (PSR sort gate): high polyreactivity

## QVQLVESGGGLVQAGGSLRLSCAASGSTFGYYAMGWYRQAPGKERELVAAISSGGSTNYADSVKGRFTISRDNAKNTVYLQMNSLKPEDTAVYYCNVGYIFVSFRYDYWGQGTQVTVSS
  polyreactivity (PSR sort gate): low polyreactivity

## QDQLVDSGGGLVQAGGSLRLSCAASGRIFRGNAMGWYRQAPGKERELVAAISNSGGRTYYADSVKGRFTISRDNAKNTVYLQMNSLKPDDTAVSYCAAKAPVIFWDTRIVPGYSGYYYWGQGTQVTVSS
  polyreactivity (PSR sort gate): high polyreactivity

## QVQLVESGGGLVQAGGSLRLSCASSGHIFIGNAMGWYRQAPGKERELVAAISRGGGRTYYADSVKGRFTISRDNAKNTVFLQMNILKPEDTAVYYCATVGQGPTKTPAGRYDYWGQGTQVTVSS
  polyreactivity (PSR sort gate): high polyreactivity

## QVQLVESGGGLVQAGGSLRLSCAASGFTFKQNAMGWYRQAPGKERELVAAISSSGRTNYADSVKGRFTISRDNAKNTVYLQMNSLKPEDTAVYYCAAATYNAYGRRSRYYHGYNSWGQGTQVTVSS
  polyreactivity (PSR sort gate): high polyreactivity

## QVQLQESGGGLVQACGSLRLSCAASGYIFSHQYMGWYRQAPGKERELVASISPGATTNYADCVKGRFTISRDNAKNTVYLQMNSLKPEDTAVYYYAVYQILDRRLSYWGQGTQVTVSC
  polyreactivity (PSR sort gate): high polyreactivity

## QDQLVESGGGLVQAGGSLRLSCAASGFTFGYYAMGWYRQAPGKERELVAAISSGSSTYYADSVKGRFTISRDNAKNTVDLQMISLTPEDTAVFYCAATGDNNTPSGYDYWGQGTQVTVSS
  polyreactivity (PSR sort gate): high polyreactivity

## QVQLVESGGGIVQAGGSLRLSCAASGRIFAYYAMGWYRQAPGKERELVAAISTSGGSTYYADSVKGRFTISRDNAKNTVYLQMNSLKPEDTAVYYCAAEFGGGRSTNFDYWGQGTQVTVSS
  polyreactivity (PSR sort gate): low polyreactivity

## QVQLVESGGCLVQAAGRLRLSSAASGSTFYGYAMGWYRQAPGKERQLVAAITVRGGSTYYADSVKGRFTISRDNAKNTVYLQMYSLKPEDTAVYYCNAYIVSGFYVYDYWGQGTQVTVSS
  polyreactivity (PSR sort gate): high polyreactivity

## QVQLVESGGGLVQAGGSLRLSCAASGSTIPPNAMGWYRQAPGKERELVAVISNGGSNTRYADSVKGRFTISRDNAKNTVYLQMNRLKPEDTAVYYCAADYEYSGYGYWGQGTQVTVSS
  polyreactivity (PSR sort gate): high polyreactivity

## QVQLVESGGGLVQAGGSLRLSCAASGSIFAQYTMGWYRQAPGKERELVAVISINGVSTYYADSVKGRFTISRDNAKNTVYLQMNSLKPEDTAVYYCNAGISPYEALGYWGQGTQVTVSS
  polyreactivity (PSR sort gate): low polyreactivity

## QVQLVESGGGLVQAGGSLRLSWAASGSTFQSYAMGLSRQAPGKERELVAAISFSGGSTYYADSVKGRFTISRDNAKNTVYLQMHSLKPEDTAVYYCAADVAYVEYDYWGQGTQVTVSS
  polyreactivity (PSR sort gate): low polyreactivity

## QVQLVESGGGLVQAGGSLRLSCAASGRIIGYYAMGWYRQAPGKERELVAAISRRGGSTYYADSVKGRFTISRDNAKNTVYLQMNSLKPEDTAVYYCNADRVLTRPRYDYWGQGTQVTVSS
  polyreactivity (PSR sort gate): low polyreactivity

## QVQLVESGRGLVQEGGSLRLSCAASGRIFSAYAMGWYRQAPVKERELVAAITWSGANTDYADSVKGRFTISRDNAKNNVYLQMNSLKPEDTAVYYCNASVGRDSAYDYLGQGTQVTVSS
  polyreactivity (PSR sort gate): low polyreactivity

## QVQLVESVGGLVQAGGSLRLICAASGSIFIGYAMGWYRQAPGKERELVAAISNSGGRTYYADSVKGRFTISRDYAKNTVYLQMNSLKPDDTAVYYCAARLRYRGRRYDYWGQGTQVTVSS
  polyreactivity (PSR sort gate): high polyreactivity

## QVQLVESGGGLVQAGGSLRLSCAASGSTFSTYAMGWSRLAPGKERELVATISKRGGSTYYADSVKGRFTISRDNAKNTVYLQMNSLKPEDTAVYYCAARWQWLNGYYYWGQGTQVTVSS
  polyreactivity (PSR sort gate): high polyreactivity

## QDQLVESGGGLVQAGGSLRLSCAASGSTFSRNAMGWYRQAPGKERELVAAISWRGGRTYYADSVKGRFTISRDNAKNTVYLQMNSLKPEDTAVYYCAAEHKYRYDYWGQGTQVTVSS
  polyreactivity (PSR sort gate): low polyreactivity

## QVQLVESGGGLVQAGGSLRLSCAASGSTFKIYAMGWYRQAPGKEREVVARITGRGGSTYYADSVKGRFTISRDNAKNTVYLQMNSLKPEDTAVYYCAAAKRYYSEMYWGQGTQVTVSS
  polyreactivity (PSR sort gate): high polyreactivity

## QVQLEESGGGLVQAGGSLRLSCAASGSIYYLNAMGWYRQAPGKERELVAAINSGGTTNYADSVKGRFTISRDNAKYTVYLQMNSLKPEDTAVYYCATDGYYYYYRVYKFDYWGQGTQVTVSS
  polyreactivity (PSR sort gate): low polyreactivity

## QVQLVESGGGLVQAGGSLRLSCADSGRIFVLYAMGWYRQAPGKERELVAAISRSSTSTYYADSVKGRFTISRDNAKNTGYLQMNSLKPEDTAVYYCAARGRYAYPRYGYYPVNYWGQGTQVTVSS
  polyreactivity (PSR sort gate): high polyreactivity
